From patent publication US20120316071A1 (published 2012)
Where a chain is given by its changes, count along the chain named. Numbers in names are those of the source. One block for each binder: values may come before it.

Columns and labels:
[1] = molecular target: T1, rHuman ErbB2/Fc Chimera, CF (R&D Systems Cat#1129-ER) (human, UniProt P04626 23-652); assay: MSD ECL multispot assay, antigen spotted on plate, Fab in solution; blank spot of this row 277
T1 construct: Bought recombinant protein; not shown: Fc of the bought chimera

[2] = molecular target: T2, rHuman P-Cadherin/Fc Chimera, CF (R&D Systems Cat#861-PC) (human, UniProt P22223 108-654); assay: as above
T2 construct: Bought recombinant protein; not shown: Fc of the bought chimera

[3] = molecular target: T3, Recombinant Human DLL4 (R&D Systems Cat#1506-D4/CF) (human, UniProt Q9NR61 27-524); assay: as above
T3 construct: Bought recombinant protein; also called delta-like protein 4; rHuman DLL4

[4] = molecular target: T4, rHuman HGF R/c-MET/Fc Chimera, CF (R&D Systems Cat#358-MT/CF) (human, UniProt P08581 25-932); assay: as above
T4 construct: Bought recombinant protein; also called HGF R/Fc; not shown: Fc of the bought chimera

[5] = molecular target: T5, rHuman EGF R/Fc Chimera, CF (R&D Systems Cat#344-ER) (human, UniProt P00533 25-645); assay: as above
T5 construct: Bought recombinant protein; not shown: Fc of the bought chimera

[6] = molecular target: T6, rHuman IGF-1 sR (insulin-like growth factor-1 soluble receptor), CF (R&D Systems Cat#391-GR) (human, UniProt P08069 31-932); assay: as above
T6 construct: Bought recombinant soluble receptor

[7] = molecular target: T1, rHuman ErbB2/Fc Chimera, CF (R&D …); assay: MSD ECL multispot assay, antigen spotted on plate, Fab in solution; blank spot of this row 282
[8] = molecular target: T2, rHuman P-Cadherin/Fc Chimera, CF (R&D …); assay: as above
[9] = molecular target: T3, Recombinant Human DLL4 (R&D Systems …); assay: as above
[10] = molecular target: T4, rHuman HGF R/c-MET/Fc Chimera, CF (R&D …); assay: as above
[11] = molecular target: T5, rHuman EGF R/Fc Chimera, CF (R&D …); assay: as above
[12] = molecular target: T6, rHuman IGF-1 sR (insulin-like growth …); assay: as above
[13] = molecular target: T1, rHuman ErbB2/Fc Chimera, CF (R&D …); assay: MSD ECL multispot assay, antigen spotted on plate, Fab in solution; blank spot of this row 274
[14] = molecular target: T2, rHuman P-Cadherin/Fc Chimera, CF (R&D …); assay: as above
[15] = molecular target: T3, Recombinant Human DLL4 (R&D Systems …); assay: as above
[16] = molecular target: T4, rHuman HGF R/c-MET/Fc Chimera, CF (R&D …); assay: as above
[17] = molecular target: T5, rHuman EGF R/Fc Chimera, CF (R&D …); assay: as above
[18] = molecular target: T6, rHuman IGF-1 sR (insulin-like growth …); assay: as above
[19] = molecular target: T1, rHuman ErbB2/Fc Chimera, CF (R&D …); assay: MSD ECL multispot assay, antigen spotted on plate, Fab in solution; blank spot of this row 317
[20] = molecular target: T2, rHuman P-Cadherin/Fc Chimera, CF (R&D …); assay: as above
[21] = molecular target: T7, rHuman CD44/Fc Chimera, CF (R&D Systems Cat#3660-CD) (human, UniProt P16070 21-220); assay: as above
T7 construct: Bought recombinant protein; not shown: Fc of the bought chimera

[22] = molecular target: T4, rHuman HGF R/c-MET/Fc Chimera, CF (R&D …); assay: as above
[23] = molecular target: T8, rHuman Notch-1/Fc Chimera, CF (R&D Systems Cat#3647-TK) (human, UniProt P46531 19-526); assay: as above
T8 construct: Bought recombinant protein; not shown: Fc of the bought chimera

[24] = molecular target: T5, rHuman EGF R/Fc Chimera, CF (R&D …); assay: as above
[25] = molecular target: T9, rHuman Erythropoietin R/Fc Chimera, CF (R&D Systems Cat#963-ER) (human, UniProt P19235 25-250); assay: as above
T9 construct: Bought recombinant protein; also called EPO R; EPO R/Fc; not shown: Fc of the bought chimera
T9 sequence (looked up): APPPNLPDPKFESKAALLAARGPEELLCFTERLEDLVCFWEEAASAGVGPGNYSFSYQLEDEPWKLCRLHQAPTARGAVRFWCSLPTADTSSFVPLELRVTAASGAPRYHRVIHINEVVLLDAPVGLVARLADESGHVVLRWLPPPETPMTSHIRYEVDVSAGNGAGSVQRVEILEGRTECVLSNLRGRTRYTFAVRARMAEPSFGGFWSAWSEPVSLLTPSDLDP

[26] = molecular target: T6, rHuman IGF-1 sR (insulin-like growth …); assay: as above
[27] = molecular target: T1, rHuman ErbB2/Fc Chimera, CF (R&D …); assay: MSD ECL multispot assay, antigen spotted on plate, Fab in solution; blank spot of this row 278
[28] = molecular target: T2, rHuman P-Cadherin/Fc Chimera, CF (R&D …); assay: as above
[29] = molecular target: T7, rHuman CD44/Fc Chimera, CF (R&D Systems …); assay: as above
[30] = molecular target: T3, Recombinant Human DLL4 (R&D Systems …); assay: as above
[31] = molecular target: T4, rHuman HGF R/c-MET/Fc Chimera, CF (R&D …); assay: as above
[32] = molecular target: T8, rHuman Notch-1/Fc Chimera, CF (R&D …); assay: as above
[33] = molecular target: T5, rHuman EGF R/Fc Chimera, CF (R&D …); assay: as above
[34] = molecular target: T9, rHuman Erythropoietin R/Fc Chimera, CF …; assay: as above
[35] = molecular target: T6, rHuman IGF-1 sR (insulin-like growth …); assay: as above

T4 sequence (P08581 25-932, change not shown): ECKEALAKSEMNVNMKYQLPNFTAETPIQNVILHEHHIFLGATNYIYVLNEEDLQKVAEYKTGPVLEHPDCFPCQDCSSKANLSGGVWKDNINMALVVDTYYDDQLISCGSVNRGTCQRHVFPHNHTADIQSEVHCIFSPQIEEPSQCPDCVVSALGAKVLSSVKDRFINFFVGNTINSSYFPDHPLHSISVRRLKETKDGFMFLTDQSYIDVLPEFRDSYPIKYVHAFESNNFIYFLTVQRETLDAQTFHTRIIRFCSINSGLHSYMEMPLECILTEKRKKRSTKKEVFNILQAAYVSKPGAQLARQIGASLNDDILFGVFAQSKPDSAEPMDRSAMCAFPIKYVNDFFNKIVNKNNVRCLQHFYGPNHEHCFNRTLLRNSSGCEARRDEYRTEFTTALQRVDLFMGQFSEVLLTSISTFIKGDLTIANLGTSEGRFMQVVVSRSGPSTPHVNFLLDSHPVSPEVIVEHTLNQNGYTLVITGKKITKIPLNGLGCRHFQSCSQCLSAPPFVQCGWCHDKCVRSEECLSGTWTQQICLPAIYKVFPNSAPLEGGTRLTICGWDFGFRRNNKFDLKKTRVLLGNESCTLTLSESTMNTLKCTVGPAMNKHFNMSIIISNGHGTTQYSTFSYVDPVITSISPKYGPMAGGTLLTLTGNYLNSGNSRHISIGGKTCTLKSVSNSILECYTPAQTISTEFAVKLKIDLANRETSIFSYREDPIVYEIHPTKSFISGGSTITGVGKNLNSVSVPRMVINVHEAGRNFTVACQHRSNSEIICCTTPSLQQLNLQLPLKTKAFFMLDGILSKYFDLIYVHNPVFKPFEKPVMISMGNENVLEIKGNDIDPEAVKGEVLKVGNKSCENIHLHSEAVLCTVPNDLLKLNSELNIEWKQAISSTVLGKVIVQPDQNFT

- ECL signal [1]: 311
- ECL signal [2]: 299
- ECL signal [3]: 165000
- ECL signal [4]: 267
- ECL signal [5]: 307
- ECL signal [6]: 221
- ECL signal [7]: 259
- ECL signal [8]: 302
- ECL signal [9]: 165000
- ECL signal [10]: 321
- ECL signal [11]: 290
- ECL signal [12]: 249
- ECL signal [13]: 236
- ECL signal [14]: 283
- ECL signal [15]: 164000
- ECL signal [16]: 339
- ECL signal [17]: 266
- ECL signal [18]: 305
B1: Fab VH1-46_IGHD6-6*01_IGHJ1*01 S102A/S103P/S104F/H111F (APFF) & L6_IGKJ1*01 (Fab, V domains shown)
VH: QVQLVQSGAEVKKPGASVKVSCKASGYTFTSYYMHWVRQAPGQGLEWMGIINPSGGSTSYAQKFQGRVTMTRDTSTSTVYMELSSLRSEDTAVYYCAREEYAPFSAEYFQFWGQGTLVTVSS
VL: not shown
notes: Fab; also called APFF / parent; H:APFF & L:wt

- ECL signal [19]: 188
- ECL signal [20]: 373
- ECL signal [21]: 248
- ECL signal [22]: 230
- ECL signal [23]: 262
- ECL signal [24]: 319
- ECL signal [25]: 371
- ECL signal [26]: 244
B2: Fab VH1-46_IGHD6-6*01_IGHJ1*01 S102A/S103P/S104F/H111F (APFF) & L6_IGKJ1*01 S92V (Fab, V domains shown)
VH: B1 VH
VL: EIVLTQSPATLSLSPGERATLSCRASQSVSSYLAWYQQKPGQAPRLLIYDASNRATGIPARFSGSGSGTDFTLTISSLEPEDFAVYYCQQRVNWPPWTFGQGTKVEIKR
notes: Fab; also called APFF / S92V

- ECL signal [27]: 237
- ECL signal [28]: 387
- ECL signal [29]: 290
- ECL signal [30]: 54100
- ECL signal [31]: 290
- ECL signal [32]: 231
- ECL signal [33]: 295
- ECL signal [34]: 424
- ECL signal [35]: 308
B3: Fab VH1-46_IGHD6-6*01_IGHJ1*01 S102A/S103P/S104F/H111F (APFF) & L6_IGKJ1*01 S92T (Fab, V domains shown)
VH: B1 VH
VL: B2 VL with V92T
notes: Fab; also called APFF / S92T
